Here are results for 41 sequences from the nanobody polyreactivity screen of Harvey et al. (2022).

This series can be described thus: yeast display, Sf9 membrane polyspecificity reagent, FACS + sequencing; frameworks hold sequencing errors. In short, it runs like this: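 Galactose-induced (36–48 hours) yeast carrying a synthetic nanobody display library were exposed to 10% biotinylated, detergent-solubilized Sf9 membrane reagent at 4 °C for 1 hour. FACS followed streptavidin microbead enrichment, using low and high (top ~1%) gates for expression (anti-HA) and reagent binding (streptavidin). Colony PCR, MiSeq 2 × 250 sequencing and CDR-length filtering followed. Labels for polyreactivity reflect the gate of origin.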
As to “QFQLVESGGGLVQAGGSLRLSCAASGSTFTPYDMGWYRQAPGKERELVAVITGSDGTYYADSVKGRFTISRDNAKNTVYLQMNSLKPEDTAVYYCATDWTFGRWSTLGVEMDYWGQGTQVTVSS”, the “polyreactivity (PSR sort gate)” value is given as “low polyreactivity”.
The same measure for “QFQLVESGGGLVQAGGSLRLSCAASGSTFVWNAMGWYRPAPGKERELVAAITNDGRTNYADSVKGRFTISRDNAKNTVYLKMNSLKPEDTAVYYCNADGYNSYWWNYYWGQGTQVTVSS”: “low polyreactivity”; for “QFQLVESGGGLVQAGGSLRLSCAASGSTFYTNAMGWYRQAPGKERELVAAITSRTGSTYYADSVKGRFTISRDNAKNTVYLQMNSLKPEDTAVYYCAADIYDWGGHYEYWGQGTQVTVSS”: “high polyreactivity”.
For “QFQLVESGGGLVQAGGSLRLSCAASGSTINPNTMVWSREAPGKERELVAVISSGGSTYYADSVKGRFTISRDNATNTVYLQMNSLKPEDSAVYYCAADRGTVSYLYCPRAVYYWGQGTQVTVSS”, the “polyreactivity (PSR sort gate)” value is listed as “low polyreactivity”.
With “QFQLVESGGGLVQAGGSLRLSCAASGSTLRLNVMGWYRQAPGKERELVARISRGCSTYYADSVKGRFTISRDNAKNTVYLQMNSLKPEDTAVYYCTAQSYPCVTPYSYWGQGTQVTVSS”, the “polyreactivity (PSR sort gate)” value is recorded as “low polyreactivity”.
Consider “QFQLVESGGGLVQAGGSLRLSCAATGSIFRGNAMGWYRQAPGKERELVAGINRAGSTKYADSVKGRFTISRDNAKNTVYLQMNSLKPEDTAVYYCAAVRYERGLWSDYWGQGTQVTVSS”, for which the “polyreactivity (PSR sort gate)” value is given as “high polyreactivity”.
As to “QFQLVESGGGLVQAGGSLRLSCAAYGSTLYPYEMGWYRQAPGKERELVAAIDSGGSKNYADSVKGRFTISRDNAKNTVYLQMNSLKPEDTAVYYCAADGGVAWGYGYWGQGTQVTVSS”, the “polyreactivity (PSR sort gate)” value is “low polyreactivity”.
For “QFQLVESGGGLVQAGGSLRLSFAPSGSTFSYYAMGWYRPAPGKERELVAAISSRGGSTYYADSVKGRFTISRYNAKNTFYFQMNCLKAEDTDVYYSAAVLRGPDPTSTYYSWGQGTQVTVSS”, the “polyreactivity (PSR sort gate)” value is listed as “high polyreactivity”.
The same measure for “QFQLVESGGGLVQAGGSLRLSSAASGFTFIRYAMGWYRPAPGKERELVAAITVSGTRTYYADSVKGRFTISRDNAKNTVYLQMNSLKPEDTAVYYCNARDVYTGYGMGYWGQGTQVTVSS”: “high polyreactivity”; for “QFQLVESGGGLVQAGGSVRLSCAASGSTFYLYAMGWYRQAPGKERELVAAITYGGGSTYYADSVKGRFTISRDNAKNTVYLQMNSLKPEDTAVYYCAARWLYWPRYNSLVYTHRDSWGQGTQVTVSS”: “low polyreactivity”.
In the case of “QFQLVESGGGLVQAGSRLRLICAASGSTFKYYTMGWYRQAPGKERELVATIRGSGTTYADSVKGRFTISRDNAKNTVYLQMNSLKPEDTAVYYCARLPPADMDYWGQATQVTVSS” it was “low polyreactivity”.
In the case of “QFQLVESGGGLVQAGVSLRLICAASVSTFGYNAMGWYRQAPGKERELVPANNGRGGGTYYADSVKGRFTISRDNAKNTVYLQINSLKPEDTAVYYCAKLRRAGTGRGSHVYRQSDYWGQGTQVTVSS” it was “high polyreactivity”; in that of “QFQLVESGGGLVQAGVSLRLSCAASGSTFYYGMVCSRHAPRKERELVAAISSRGGTTYYADSVKGRFTISRDNAKNTVYLQMNSLKPEDTAVYYCAAPVPYYVPSRNEGDYWGQGTQVTVSS”, “low polyreactivity”; in that of “QFQLVESGGGLVQARGSLRLSCAPSGSTFGYYTMGWYRQAPGKERELVAAISWSGGSTYYADSVKGRFTISRDNAKNTVYLQMNSLKPEDTAVYYCAALGYTYKYYSYYWGQGTQVTVSS”, “high polyreactivity”.
On to “QFQLVESGGGLVQEGGSLRISCAASGSIFNEYAMGWYRQAPGKERELVAAISTSGDITYYADSVKGRFTISLDTAKNTVYLQMNSLKPEDTAVYYCAAKYSLLRQYNRLDYWGQGTQVTVSS”, for which the “polyreactivity (PSR sort gate)” value is recorded as “low polyreactivity”.
In the case of “QFQLVESGGVLVQAGGSLRLSCAASGSTFNHYAMGWYRQARGKERELVADITKSGASTYADSVKGRFTISRDNAKNSVYLQMNSLKPEDTAVYYCAAGRRNYGTKGRGDYWGQGTQVTVSS” it was “low polyreactivity”; in that of “QFQLVESGRGLVQAGGSLRLSCAASVRIFLWYAMGWYRQAPGKERELVAVIRGRGDSTSYADSVKGRFTISRDNAKNTVYLQMNSLKPEDTAVYYCADVGRYDYNYWGQGTQVTVSS”, “low polyreactivity”; in that of “QFQLVESGVGLVQAGGSLRLSCAASGRIFTNYAMGWYRQAPGKERELVASINYSGATRNYADSVKGRFTISRDNAKNTVYLQMNSLKPEDTAVYYCNADIYPDLYGSTNYDFNYWGQGTQVTVSS”, “low polyreactivity”.
With “QFQLVESVGGLVQAGGSLRLSCAASGFIFGGYAMGWYIKAPGKERELVAAISSSGGSTYYADSVKGRFTISRDNAKNTVYLQMNSLKPEDTAVYYCAKVGWSRRYYYWGQGTQVTVSS”, the “polyreactivity (PSR sort gate)” value is given as “high polyreactivity”.
In the case of “QFQLVESVGGLVQAGGSLRLSCAATGRTSYVYLMVSYRAATGTEMELVAAITGSGGSTYYADSVKGRFTISRDNEKNNVYLQLNSLKPEDTAVYYCAKAYYSYEVYLGLSYVRRYVYWGQGTQVTVSS”, the “polyreactivity (PSR sort gate)” value is “low polyreactivity”.
Consider “QFQLVEYGGGLFQAGGSLRLSCDASGSIFPYNDLGWYRQAPGKERELVARITNGGSTNYADSVKGRFTISRDNAKNTFYLQMNSLKPEDTAGYYCNKDGTQEFAPDGHEYWGQGTQVTVSS”, for which the “polyreactivity (PSR sort gate)” value is “low polyreactivity”.
In the case of “QGHLVESGGGLVQAGGSLRLSCAASGFIFDYYAMGWYRQAPRKERELVAAITRDGGGTYYADSVTGRFTISRDNAKNTVYLQMNSLKPEDTAVYYCAARRAVRLYYWGQGTQVTVSS” it was “high polyreactivity”; in that of “QGQHVESGGGLVQAGGRLRLSCAASGSILSGYEMGRSREAPGKERELVASITRGGSTYYADSVKGRFTISRDNANNSVYFQMNSLNPEDPAVYDCARYGSKNRRLGMDYWGQGTQVTVSS”, “low polyreactivity”.
The same measure for “QGQHVESGGGLVQAGGSLRLSCAASGRIFVPYAMGWYRQAPGKERELVAAITWRGGSPYYADSVKGRFTLSRDNAKNTVYLQMNSLKPVDTAVYYCNAAEASPWFWFSHLQVGMDYWGQGTQVTVSW”: “low polyreactivity”; for “QGQLEESGGGLVQAGGSLRLSCAASGSIFGENAMGWYRQAPGKDRELVAAISSAGSTKYADSVKGRFTISRDNAKNSVYFQMNSLKPEDTAVYYCAAGYYRTSYPYSYYYWGQGTQVTVSS”: “low polyreactivity”; for “QGQLEESGGGLVQAGGSLRLSCAASGSLFPSYVMGWYRQAPGKERELVAAIRTSGDRTYYADSVKGRFTNSRDNAKNTVYLQMNCLKPEDTAVYYCAAPYGHKSPRMYYWGQGTQVTVSS”: “high polyreactivity”.
In the case of “QGQLEESGGGLVQAGGSLRLSCAASGSTFTYYAMGWYRQATGKERELVAAISWSGTRTYYADSVKGRFTISRDNAKNTDYLQTNSLKPEDTAVYYCAADWRRSGVYTMGYWGQGTQVTVSS” it was “high polyreactivity”; in that of “QGQLGESGGGLVQAGGSLRLSSPASGIIFWDYAMAWSRQSPGNEREFVAAINTSGGTTTYADSVKGRFTISRDNAKNTVYLQMNSLKPEDTAVYYCAADPWGYYSYAYYYWGQGTQVTVSS”, “low polyreactivity”; in that of “QGQLVDSGGGLVQAGGSLRLSCAASGFTVTRYAMGWYRTATGKERELVAAISWNSGSTYYADSVKGRFTISRDNAKNTVYLQMNSLKPEDTAVYYCAARDDQGYCYWGQGTQVTVSS”, “high polyreactivity”.
For the sequence “QGQLVESCGGLVQAGGSLRFICAASGSNFFSYAMGCYRQAPWKERELVASISRRGGTTYYADSVKGRFTISRDNAKNTVYLHMNSLKPDDTAVYYCAAKLLYGGRYGYWGQGTQVTVSS”, the “polyreactivity (PSR sort gate)” value was “high polyreactivity”.
For “QGQLVESCGGLVQAGGSLRLSCAASGSTFAAYTMGWYRQAPGQERELVAAIRFDGGRTYYADSVKGRFTSSRDNAKNTVYLPMNSLKPEDTAVYYCRAWQSYSYDYWGQGTQVTVSS”, the “polyreactivity (PSR sort gate)” value was “high polyreactivity”.
In the case of “QGQLVESGGALVQAGGSLRLSCAPSGRTFHGYAMGGYRQAPGKERELVARINWSDGRTYYADSVKGRFTISRDNAKNTVYLQMNSLKPEDTAVYYCAADKTVSYGPAWYYYWGQGTQVTVSS” it was “low polyreactivity”; in that of “QGQLVESGGGFVQAGGSLRLSCAASGRTIEGNAMGWYRQPPWKERELVAGIRQSGDSTYYADSVKGRFTISRDNAKNTVYLQMNSLKAEETAVFYSNSRAFPFGTGVQGFGFGYWGQGTQVTVSS”, “low polyreactivity”; in that of “QGQLVESGGGIVQAGGSLRLSCSASGLTYGTNAKGLYRQAPRQERELVAAISRSGGTTYYADSVKWRFTISRDNAKNTVDLQMNSLKPEDTAVYYCATRPYSPWRHYFWGQGTQVTVSS”, “high polyreactivity”.
For “QGQLVESGGGLFQAGGSLRLSCDDSGRTFSGYAMGWYRQAPGKEREFVAAITWSGGSTYYADSVKGRFSISRDNAKNTVYLQMNSLKPEDTAVYYCAARDYTRYGYGYWGQGTQVTVSS”, the “polyreactivity (PSR sort gate)” value is recorded as “high polyreactivity”.
In the case of “QGQLVESGGGLGQAGGSLRLSSAASGRTFGRYAMGWYRQAPGNERELVAAISYSTDSTYYADSVKGRFTISRDNAKNTVYLQMNSLKPEDTAVYYCATDSVNVGSYVGDKHDYWGQGSQVTVSS” it was “low polyreactivity”; in that of “QGQLVESGGGLLQAGGSLRLISAASGSTFPIYAMGWYRHAPRKERELVAAITWRGGSRKYYADSVKGRYTISRDNAKNTVYLQMNCLKPEDTAVYYCAAEYKWPLYGYWGQGTQVTVSS”, “low polyreactivity”.
Turning to “QGQLVESGGGLVQAGCSLRLSCAASGSTFSYYAMGWYRQAPGKETELVAAIRKSGGSTYYADSVKGRFTISRDNAKNTVYLQMNSLKPEDTAVNSCVAVFSYYGWYSRYDYWGQGTQVTVSS”, the “polyreactivity (PSR sort gate)” value is given as “low polyreactivity”.
Regarding “QGQLVESGGGLVQAGGILRLRCAASGRMFQQYAMGWYRQAPGKERELVAVITYRAGRTHYADSVKGRFTISRDIAKNTVYLQMYRVKPDDTAVYYCAAGRYYAVWHSISGFDSWGQGTQETVSS”, the “polyreactivity (PSR sort gate)” value was “low polyreactivity”.
Regarding “QGQLVESGGGLVQAGGRLRLSCAASGFIFCIYAMAWYRTATGKQREFVAVSTYRGDTKYYADSVKGRFTISRDNAKNTVYLQMNSLKAEDTAVYSCAAYTVQKYGYWGQGTQVTVSS”, the “polyreactivity (PSR sort gate)” value is recorded as “low polyreactivity”.
The same measure for “QGQLVESGGGLVQAGGSLRLICAASGFIFQANALGWYRQAPGQERELVAAITSSVGRTYYADSVKGRFTISRDNAKNTVYLQMNSLKPEYTEVYYCNAGGHLEMNYWGQGTQVTVSS”: “low polyreactivity”.
